Substrate in data set [1]: CC(C)=CCC/C(C)=C/COP(=O)(O)OP(=O)(O)O
As to the kind of experiment: HPLC of S-adenosylhomocysteine formation, steady state. The class given is biochemical, Streptomyces coelicolor. The settings on record: 100 μM SAM, 10 mM MgCl2, pH 7.0, 30°C, 20 min, 2 μM enzyme.

Substrate in data set [2]: CC(C)=CCOP(=O)(O)OP(=O)(O)O
The data set is described as above. The class given is biochemical, Streptomyces coelicolor. The settings on record: 100 μM SAM, 10 mM MgCl2, pH 7.0, 30°C, 20 min, 5 μM enzyme.

B1: ScGPPC2MT (GPP C2-methyltransferase) (Streptomyces coelicolor A3(2)) (protein)
chain: MTTETTTATATAKIPAPATPYQEDIARYWNNEARPVNLRLGDVDGLYHHHYGIGPVDRAALGDPEHSEYEKKVIAELHRLESAQAEFLMDHLGQAGPDDTLVDAGCGRGGSMVMAHRRFGSRVEGVTLSAAQADFGNRRARELRIDDHVRSRVCNMLDTPFDKGAVTASWNNESTMYVDLHDLFSEHSRFLKVGGRYVTITGCWNPRYGQPSKWVSQINAHFECNIHSRREYLRAMADNRLVPHTIVDLTPDTLPYWELRATSSLVTGIEKAFIESYRDGSFQYVLIAADRV
As to B1, in data set [1], the Km – broadly, the substrate concentration at which the rate is half of its maximum – is 0.88 ± 0.09 µM and the kcat result is “(4.90 ± 0.16) × 10^−4 s^−1”.

B2: ScGPPC2MT (GPP C2-methyltransferase) (Streptomyces coelicolor A3(2); F222Y/G202M) (protein)
chain: MTTETTTATATAKIPAPATPYQEDIARYWNNEARPVNLRLGDVDGLYHHHYGIGPVDRAALGDPEHSEYEKKVIAELHRLESAQAEFLMDHLGQAGPDDTLVDAGCGRGGSMVMAHRRFGSRVEGVTLSAAQADFGNRRARELRIDDHVRSRVCNMLDTPFDKGAVTASWNNESTMYVDLHDLFSEHSRFLKVGGRYVTITMCWNPRYGQPSKWVSQINAHYECNIHSRREYLRAMADNRLVPHTIVDLTPDTLPYWELRATSSLVTGIEKAFIESYRDGSFQYVLIAADRV
On to B2, for which, in data set [2], the Km worked out at 5.33 ± 0.81 µM and the kcat result was “(9.59 ± 0.25) × 10^−5 s^−1”.

For the origin of these results see PMC9800250.
